target: SARS-CoV preparation (Frankfurt 1 strain); assay: phage ELISA on coated SARS-CoV preparation, plate 2 (no phage antibody 0.211)

| Binder | OD492 nm [OD492 nm] |
| --- | --- |
| SC03-025 (scFv) scFv: AMAEVQLVESGGGLVQPGGSLRLSCAASGFTFSSYAMHWVRQAPGKGLEYVSGISSNGGSTYYANSVKGRFTISRDNSKNTLYLQMGSLRAEDMAVYYCARTTNRAFDIWGQGTMVTVSSGTGGSGGTGSGTGGSTDIQLTQSPDSLAVSLGERATINCKSSQSVLYSSNNKNYLAWYQQKPGQPPKLLIYWASIRESGVPDRFSGSGSGTDFTLTISSLQAEDVAVYYCQQYYNIPYAFGQGTKLEIKRAA | 1.64 |
| SC03-024 (scFv) scFv: AMAQVQLVESGSELKIPGASVKVSCKATGYTFTRYSLNWVRQAPGQGLEWVGWINTQTGNSNYGQAFSGRFVFSLDTSVSTAYLQISSLQAEDTATYYCARKSAGSNAFDIWGQGTMVTVSSGTGGSGGTGSGTGGSTQSVVTQPPSVSAAPGQKATISCSGSSSNIGNNYVSWYQQLPGTAPKLLIYDNNKRPSGIPNRFSGSKSGTSATLGITGLQTGDEADYYCGTWDSSLSAYVFGTGTKVTVLGAA | 0.235 |
| SC03-020 (scFv) scFv: AMAEVQLVQSGSEVKKPGESLKISCKGSGYGFITYWIGWVRQMPGKGLEWMGIIYPGDSETRYSPSFQGQVTISADKSINTAYLQWSSLKASDTAIYYCAGGSGISTPMDVWGQGTTVTVSSGTGGSGGTGSGTGGSTDIQMTQSPDSLAVSLGERATINCKSSQKILHSSNNKNYLAWYQQKPGQPPKLLIYWASTRESGVPDRFSGSGSGTDFTLTISSLQAEDVAVYYCQQYYSTPPVFGGGTKVEIKRAA | 0.671 |
| SC03-021 (scFv) scFv: AMAQVQLVQSGTEVKKPGESLKISCKGSGYGFITYWIGWVRQMPGKGLEWMGIIYPGDSETRYSPSFQGQVTISADKSINTAYLQWSSLKASDTAIYYCAGGSGISTPMDVWGQGTTVTVSSGTGGSGGTGSGTGGSTDVVMTQSPDSLAVSLGERATINCKSSQSVLHSSNNKNYLAWYQQKPGQPPKLLIYWASTRQSGVPDRFSGSGSGTDFTLTISSLQAEDVAVYYCQQYYSTPPTFGQGTKVEIKRAA | 0.215 |
| SC03-023 (scFv) scFv: AMAQVQLQQWGAGLLKPSETLSLTCAVYGGSFSGFYWSWIRQPPGKGLEWIGEINHSGSTNYNPSLKSRVTISVDTSKNQFSLKLSSVTAADTAVYYCARRVEVVEYQLLRPRYKSWFDPWGQGTLVTVSSGTGGSGGTGSGTGGSTQSALTQPRSVSGSPGQSVTISCTGSSSTVGGYNYVSWYQQHPGKAPKLMIYDVSKRPSGVSNRFSGSKSGNTASLTISGLQAEDEADYYCSSYTSSSTYVFGTGTKVTVLGAA | 1.31 |

target: SARS-CoV preparation (Frankfurt 1 strain); assay: phage ELISA on coated SARS-CoV preparation, plate 3 (no phage antibody 0.054)

| Binder | OD492 nm [OD492 nm] |
| --- | --- |
| SC03-043 (scFv) scFv: AMAQVQLVQSGGGLVQPGGSLRLSCAASGFTFSSYAMHWVRQAPGKGLEYVSGISSNGGSTYYANSVKGRFTISRDNSKNTLYLQMGSLRAEDMAVYYCARTTNRAFDIWGQGTMVTVSSGTGGSGGTGSGTGGSTDIQLTQSPDSLAVSLGERATINCKSSQSVLYRSNNKNYLAWYQQKPGQPPKLLIYWASTRESGVSERFSGSGSGTDFTLTISSLQAEDVAVYYCQQYYSTPYSFGQGTKLEIKRAA | 1.27 |
| SC03-034 (scFv) scFv: AMAEVQLVQSGAEVKKPGESLKISCKGSGYGFITYWIGWVRQMPGKGLEWMGIIYPGDSETRYSPSFQGQVTISADKSINTAYLQWSSLKASDTAIYYCAGGSGISTPMDVWGQGTTVTVSSGTGGSGGTGSGTGGSTDVVMTQSPDSLAVSLGERATINCKSSQSILNRSNNKNYLAWYQQKPGQPPKLLIYWASTRESGVPDRFSGSGSGTDFNLTISSLQAEDVAVYYCQQYNNWPLTFGGGTKVDIKRAA | 0.802 |
| SC03-051 (scFv) scFv: AMAQVQLVQSGTEVKKPGESLKISCKGSGYGFITYWIGWVRQMPGKGLEWMGIIYPGDSETRYSPSFQGQVTISADKSINTAYLQWSSLKASDTAIYYCAGGSGISTPMDVWGQGTTVTVSSGTGGSGGTGSGTGGSTDIQMTQSPDSLAVSLGERATINCKSGQSILYSSNDKNYLAWYQQKPGQPPKLLIYWASTRESGVPDRFSGSGSGTDFTLTISSLQAEDVAVYYCQQYYSTPYTFGQGTKVEIKRAA | 0.602 |
| SC03-039 (scFv) scFv: AMAEVQLVESGGGLVQPGGSLRLSCAASGFTFSSYAMSWVRQAPGKGLEWVSVIYSGGTSTYYADSVKGRFTISRDNSKNTLYLQMNSLRAEDTAVYFCAKGSKWNDVGGGDYWGQGTLVTVSSGTGGSGGTGSGTGGSTNFMLTQPHSVSESPGKTVTISCAGSSGSIASNYVQWYQQRPGSAPTTVIYEDNQRPSGVPDRFSGSIDSSSNSASLTISGLKTEDEADYYCQSYDGYLWIFGGGTKLTVLGAA | 0.851 |
| SC03-046 (scFv) scFv: AMAEVQLVQSGGGLVQPGGSLRLSCAASGFTFSSYAMHWVRQAPGKGLEYVSGISSNGGSTYYANSVKGRFTISRDNSKNTLYLQMGSLRAEDMAVYYCARTTNRAFDIWGQGTMVTVSSGTGGSGGTGSGTGGSTDVVMTQSPDSLAVSLGERATINCKSSQSVLYSSNNKNYLAWYQQKPGQPPKLLIYWASTRESGVPDRFSGSGSGTDFSLTISSLQAEDVAVYYCQQYYSPPYTFGPGTKVEIKRAA | 1.9 |
| SC03-055 (scFv) scFv: AMAQVQLQQWGAGLLKPSETLSLTCAVYGGSFSGFYWSWIRQPPGKGLEWIGEINHSGSTNYNPSLKSRVTISADTSKNQFSLKLSSVTAADTAVYYCARRVEVVEYQLLRPRYKSWFDPWGQGTLVTVSSGTGGSGGTGSGTGGSTQSVLTQPPSVSGAPGQRVSISCSGSGANGGTDPVSWYQKFPGTAPHLLIYDNNKRPSGIPDRFSGSKSGASATLDITGLQTGDEADYYCGAWDPSLSGYVFGTGTQLTVLSAA | 0.608 |
| SC03-057 (scFv) scFv: AMAQVQLVQSGAEVKKPGSSVKVSCKASGGTFSRYAISWVRQAPGQGLEWMGRINPILNLTNYAQKFQGRVTITADKSTSTAYMEMSSLRSEDTAIYYCASPDIVVAGHASPPHYTMDVWGQGTTVTVSSGTGGSGGTGSGTGGSTDIQMTQSPSSLSASVGDRVTITCRASQGIRNDLGWYQQKPGKAPNLLIYQASALQSGVPSRFSGSESGAEFTLTISSLHPDDFATYYCQQYHDFPITFGQGTRLEIKRAA | 1.19 |
| SC03-036 (scFv) scFv: AMAEVQLVQSGTEVKKPGESLKISCKGSGYGFITYWIGWVRQMPGKGLEWMGIIYPGDSETRYSPSFQGQVTISADKSINTAYLQWSSLKASDTAIYYCAGGSGISTPMDVWGQGTTVTVSSGTGGSGGTGSGTGGSTDIQMTQSPDSLAVSLGERATINCKSSQSVLHSPNNKNYLAWYQQKPGQPPKLLIYWASTRESGVPDRFSGSGSGTDFTLTISSLQAEDVAVYYCQQYYSTNSFGQGTKLEIKRAA | 0.24 |

target: SARS-CoV preparation (Frankfurt 1 strain); assay: phage ELISA on coated SARS-CoV preparation, plate 4 (no phage antibody 0.051)

| Binder | OD492 nm [OD492 nm] |
| --- | --- |
| SC03-044 (scFv) scFv: AMAEVQLVETGGGLVQPGGSLRLSCAASGFTFSSYAMHWVRQAPGKGLEYVSGISSNGGSTYYANSVKGRFTISRDNSKNTLYLQMGSLRAEDMAVYYCARTTNRAFDIWGQGTMVTVSSGTGGSGGTGSGTGGSTDIQMTQSPDSLAVSLGERATINCKSSQSVLYSSNNKNYLAWYQQKPGQPPKLLIYWASTRESGVPDRFRGSGSGTDFTLTISSLQAEDLAVYYCQQYYSTPYSFGQGTKLEIKRAA | 0.518 |
| SC03-040 (scFv) scFv: AMAQVQLVQSGGGLVQPGGSLRLSCAASGFTFSSYAMHWVRQAPGKGLEYVSGISSNGGSTYYANSVKGRFTISRDNSKNTLYLQMGSLRAEDMAVYYCARTTNRAFDIWGQGTMVTVSSGTGGSGGTGSGTGGSTDIQMTQSPDSLAVSLGERATINCRSSQSVLYSSNNKNYLAWYQQKPGQPPKLLIYWASTRESGVPDRFSGSGSGTDFTLTISSLQAEDVAVYYCQQYYSSPYSFGQGTKLEIKRAA | 0.616 |
| SC03-054 (scFv) scFv: AMAEVQLVQSGGGVVQPGRSLRLSCAASGFTFSSYAMHWVRQAPGKGLEYVSGISSNGGSTYYANSVKGRFTISRDNSKNTLYLQMGSLRAEDMAVYYCARTTNRAFDIWGQGTMVTVSSGTGGSGGTGSGTGGSTDIQLTQSPDSLAVSLGERATINCKSSQSVLYSSNNKNYLAWYQQKPGQPPKLLIYWASTRESGVPDRFSGGGSGTDFTLTISSLQAEDVAVYYCQQYYSTPYSFGQGTKVEIKRAA | 0.428 |
| SC03-037 (scFv) scFv: AMAKVQLVQSGGGLIQPGGSLRLSCAASGFTVSSNYMSWVRQAPGKGLEWVSIVFSGGSTYYADSVKGRFTISRDNSKNTLYLQMNSLRAEDTAVYYCARDAHRGFGMDVWGQGTTVTVSSGTGGSGGTGSGTGGSTSSELTQDPAVSVALGQTVRITCQGDSLRSYYASWYQQKPGQAPVLVIYGKNNRPSGIPDRFSGSSSGNTASLTITGAQAEDEADYYCNGRDSSGNHWVFGGGTKLTVLGAA | 0.287 |
| SC03-038 (scFv) scFv: AMAEVQLVQSGGGLIQPGGSLRLSCAASGFTVSSNYMSWVRQAPGKGLEWVSIVFSGGSTYYADSVKGRFTISRDNSKNTLYLQMNSLRAEDTAVYYCARDAHRGFGMDVWGQGTTVTVSSGTGGSGGTGSGTGGSTSSELTQDPAVSVALGQTVRITCQGDSLRSYYASWYQQKPGQAPVLVIYGKNNRPSGIPDRFSGSSSGDTASLTITGAQAEDEADYYCNSRDSSGNHWVFGGGTKLTVLGAA | 0.314 |
| SC03-031 (scFv) scFv: AMAQVQLVQSGADVKKPGSSVKVSCEASGGTFSSYAISWVRQAPGQGLEWMGRIIPILGITNYAQKFQGRVTITADKSTGTGNMELSSLRSEDTAVYYCARESGGGYDNHFDYWGQGTLVTVSSGTGGSGGTGSGTGGSTQSVLTQPPSASGTPGQRVTISCSGGSSNIGSNTVNWYQQLPGTAPKLVIYANNQRPSGVPDRFSASKSGTSASLAISGLQSEDEADYYCAAWDDSLTGGVFGGGTQLTVLSAA | 0.635 |
| SC03-033 (scFv) scFv: AMAQVQLVQSGTEVKKPGESLKISCKGSGYGFITYWIGWVRQMPGKGLEWMGIIYPGDSETRYSPSFQGQVTISADKSINTAYLQWSSLKASDTAIYYCAGGSGISTPMDVWGQGTTVTVSSGTGGSGGTGSGTGGSTDVVMTQSPDSLAVSLGERATINCKTSHNIFSRSNNKDYLAWYQQKPGQPPRLLIYWASTRASGVPERFSGSGSGTDFSLTISSLQAEDVAVYYCQQYYSSPMYSFGQGTKVEIKRAA | 0.288 |

From patent US20060121580A1
